Source: article PMC6629641, “DNA translocation mechanism of the MCM complex and implications for replication initiation” (Nature Communications, 2019)

Assays:
[1] = target: the molecule itself; assay: SEC; last gel-filtration step after removal of the SUMO tag and anion exchange; oligomer judged from the elution volume
[2] = target: the molecule itself; assay: crystal structure; SsoMCM-GGSGGS-ΔC with a 12-mer oligonucleotide, magnesium, ADP and beryllium fluoride; hanging drop, 18 °C, 50 mM MES pH 6.0, 100 mM NaCl, 20 mM MgCl2, 9% PEG 8000; 3.15 Å

B1: wild-type full-length SsoMCM (enzyme, Sulfolobus solfataricus, UniProt Q9UXG1 1-686, looked up)
chain: MEIPSKQIDYRDVFIEFLTTFKGNNNQNKYIERINELVAYRKKSLIIEFSDVLSFNENLAYEIINNTKIILPILEGALYDHILQLDPTYQRDIEKVHVRIVGIPRVIELRKIRSTDIGKLITIDGILVKVTPVKERIYKATYKHIHPDCMQEFEWPEDEEMPEVLEMPTICPKCGKPGQFRLIPEKTKLIDWQKAVIQERPEEVPSGQLPRQLEIILEDDLVDSARPGDRVKVTGILDIKQDSPVKRGSRAVFDIYMKVSSIEVSQKVLDEVIISEEDEKKIKDLAKDPWIRDRIISSIAPSIYGHWELKEALALALFGGVPKVLEDTRIRGDIHILIIGDPGTAKSQMLQFISRVAPRAVYTTGKGSTAAGLTAAVVREKGTGEYYLEAGALVLADGGIAVIDEIDKMRDEDRVAIHEAMEQQTVSIAKAGIVAKLNARAAVIAAGNPKFGRYISERPVSDNINLPPTILSRFDLIFILKDQPGEQDRELANYILDVHSGKSTKNIIDIDTLRKYIAYARKYVTPKITSEAKNLITDFFVEMRKKSSETPDSPILITPRQLEALIRISEAYAKMALKAEVTREDAERAINIMRLFLESVGVDMESGKIDIDTIMTGKPKSAREKMMKIIEIIDSLAVSSECAKVKDILKEAQQVGIEKSNIEKLLTDMRKSGIIYEAKPECYKKV
notes: minichromosome maintenance (MCM) protein of Sulfolobus solfataricus, full length; also called pEE045.1; source: E. coli BL21(DE3)-RIPL, purified (Ni-NTA, size-exclusion, Ulp1 cleavage, anion exchange, gel filtration); not shown: His6, N-terminal, cleaved; SUMO, N-terminal, cleaved
stoichiometry N [1]: 6

B2: SsoMCM-GGSGGS-ΔC (enzyme, Sulfolobus solfataricus, UniProt Q9UXG1 1-612, looked up)
chain: MEIPSKQIDYRDVFIEFLTTFKGNNNQNKYIERINELVAYRKKSLIIEFSDVLSFNENLAYEIINNTKIILPILEGALYDHILQLDPTYQRDIEKVHVRIVGIPRVIELRKIRSTDIGKLITIDGILVKVTPVKERIYKATYKHIHPDCMQEFEWPEDEEMPEVLEMPTICPKCGKPGQFRLIPEKTKLIDWQKAVIQERPEEVPSGQLPRQLEIILEDDLVDSARPGDRVKVTGILDIKQDSPVKRGSRAVFDIYMKVSSIEVSGGSGGSSEEDEKKIKDLAKDPWIRDRIISSIAPSIYGHWELKEALALALFGGVPKVLEDTRIRGDIHILIIGDPGTAKSQMLQFISRVAPRAVYTTGKGSTAAGLTAAVVREKGTGEYYLEAGALVLADGGIAVIDEIDKMRDEDRVAIHEAMEQQTVSIAKAGIVAKLNARAAVIAAGNPKFGRYISERPVSDNINLPPTILSRFDLIFILKDQPGEQDRELANYILDVHSGKSTKNIIDIDTLRKYIAYARKYVTPKITSEAKNLITDFFVEMRKKSSETPDSPILITPRQLEALIRISEAYAKMALKAEVTREDAERAINIMRLFLESVGVDMESGKIDID
notes: minichromosome maintenance (MCM) protein of Sulfolobus solfataricus, cut after amino acid 612 (the C-terminal HTH domain deleted); Homohexamer; crystallised with a 12-mer ssDNA, Mg2+, ADP and ADP-BeF3; also called nearly full-length SsoMCM; MCM hexamer; source: E. coli BL21(DE3)-RIPL, purified (Ni-NTA, size-exclusion, Ulp1 cleavage, anion exchange, gel filtration); not shown: His6, N-terminal, …
stoichiometry N [2]: 6
